Experimental findings from paper PMC3578133 (Cancer research, 2012) are described below.

Test [1] has as its target T1, recombinant full length flag-tagged N-CoR (amino-acid 1-2440) (human, UniProt O75376 1-2440). In words: SPR.
Test [2] has as its target T1, recombinant full length flag-tagged …. The experiment in a line: co-IP.

T1 sequence (O75376 whole entry): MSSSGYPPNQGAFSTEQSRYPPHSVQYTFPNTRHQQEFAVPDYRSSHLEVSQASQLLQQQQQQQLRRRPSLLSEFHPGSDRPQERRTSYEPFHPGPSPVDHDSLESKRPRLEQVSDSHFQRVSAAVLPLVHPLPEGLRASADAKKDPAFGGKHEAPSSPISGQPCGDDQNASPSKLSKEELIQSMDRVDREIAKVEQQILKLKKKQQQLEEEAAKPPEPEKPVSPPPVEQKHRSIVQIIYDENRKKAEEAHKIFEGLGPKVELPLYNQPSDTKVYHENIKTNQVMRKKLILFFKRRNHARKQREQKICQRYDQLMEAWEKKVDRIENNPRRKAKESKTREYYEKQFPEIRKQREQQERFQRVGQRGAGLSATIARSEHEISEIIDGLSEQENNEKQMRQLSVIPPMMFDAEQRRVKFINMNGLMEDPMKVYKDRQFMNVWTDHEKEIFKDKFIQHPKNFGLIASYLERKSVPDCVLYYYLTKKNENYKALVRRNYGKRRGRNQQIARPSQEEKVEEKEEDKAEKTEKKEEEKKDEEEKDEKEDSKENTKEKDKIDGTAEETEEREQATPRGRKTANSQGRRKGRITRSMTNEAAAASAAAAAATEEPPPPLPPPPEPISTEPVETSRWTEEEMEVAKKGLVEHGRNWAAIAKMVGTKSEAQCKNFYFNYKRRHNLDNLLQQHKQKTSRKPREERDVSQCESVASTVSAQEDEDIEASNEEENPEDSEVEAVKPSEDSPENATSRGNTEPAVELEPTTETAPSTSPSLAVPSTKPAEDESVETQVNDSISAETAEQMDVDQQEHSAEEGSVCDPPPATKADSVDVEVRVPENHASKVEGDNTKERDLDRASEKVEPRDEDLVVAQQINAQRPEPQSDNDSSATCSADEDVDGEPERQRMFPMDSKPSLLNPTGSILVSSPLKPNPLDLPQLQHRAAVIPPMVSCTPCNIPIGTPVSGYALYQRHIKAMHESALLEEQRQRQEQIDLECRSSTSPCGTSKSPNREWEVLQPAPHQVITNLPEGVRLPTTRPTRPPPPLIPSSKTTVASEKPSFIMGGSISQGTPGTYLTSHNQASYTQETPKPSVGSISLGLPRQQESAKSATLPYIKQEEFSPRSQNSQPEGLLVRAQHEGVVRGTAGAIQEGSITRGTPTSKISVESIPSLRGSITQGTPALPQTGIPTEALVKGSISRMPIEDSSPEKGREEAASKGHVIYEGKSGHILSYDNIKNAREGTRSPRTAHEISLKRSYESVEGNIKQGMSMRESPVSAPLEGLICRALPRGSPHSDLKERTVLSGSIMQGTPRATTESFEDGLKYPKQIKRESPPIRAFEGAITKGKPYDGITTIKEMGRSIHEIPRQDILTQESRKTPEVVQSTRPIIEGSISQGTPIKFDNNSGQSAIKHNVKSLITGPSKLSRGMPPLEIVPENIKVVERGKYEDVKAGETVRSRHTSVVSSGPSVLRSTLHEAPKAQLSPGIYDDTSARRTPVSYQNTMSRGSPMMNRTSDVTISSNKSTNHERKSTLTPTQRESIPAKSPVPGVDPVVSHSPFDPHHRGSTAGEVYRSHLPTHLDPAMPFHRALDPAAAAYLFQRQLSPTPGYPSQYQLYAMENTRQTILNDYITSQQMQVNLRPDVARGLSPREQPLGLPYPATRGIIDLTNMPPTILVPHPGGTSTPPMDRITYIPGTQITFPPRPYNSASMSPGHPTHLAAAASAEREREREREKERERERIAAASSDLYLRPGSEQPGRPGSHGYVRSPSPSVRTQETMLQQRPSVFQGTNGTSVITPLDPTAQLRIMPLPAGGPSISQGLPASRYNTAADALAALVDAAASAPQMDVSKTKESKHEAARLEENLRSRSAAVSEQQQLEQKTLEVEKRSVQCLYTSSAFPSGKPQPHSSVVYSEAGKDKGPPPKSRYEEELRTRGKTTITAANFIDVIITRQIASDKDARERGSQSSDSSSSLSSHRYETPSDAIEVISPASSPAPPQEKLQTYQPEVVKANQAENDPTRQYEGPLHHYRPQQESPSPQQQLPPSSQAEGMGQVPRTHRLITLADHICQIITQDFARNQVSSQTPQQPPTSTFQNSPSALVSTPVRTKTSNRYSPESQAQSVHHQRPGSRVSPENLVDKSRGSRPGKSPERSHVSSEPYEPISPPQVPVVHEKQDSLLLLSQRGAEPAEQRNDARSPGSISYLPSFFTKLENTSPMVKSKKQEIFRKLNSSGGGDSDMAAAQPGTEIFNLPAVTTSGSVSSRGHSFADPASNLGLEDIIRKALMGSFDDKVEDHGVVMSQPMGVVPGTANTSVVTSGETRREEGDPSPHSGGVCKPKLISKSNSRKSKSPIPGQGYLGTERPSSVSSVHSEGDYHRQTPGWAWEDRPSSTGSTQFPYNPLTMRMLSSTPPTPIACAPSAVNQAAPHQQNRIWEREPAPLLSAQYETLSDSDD

B1: human full length N-terminal GST-tagged HDAC4 (natural protein, UniProt P56524 1-1084, looked up)
chain: MSSQSHPDGLSGRDQPVELLNPARVNHMPSTVDVATALPLQVAPSAVPMDLRLDHQFSLPVAEPALREQQLQQELLALKQKQQIQRQILIAEFQRQHEQLSRQHEAQLHEHIKQQQEMLAMKHQQELLEHQRKLERHRQEQELEKQHREQKLQQLKNKEKGKESAVASTEVKMKLQEFVLNKKKALAHRNLNHCISSDPRYWYGKTQHSSLDQSSPPQSGVSTSYNHPVLGMYDAKDDFPLRKTASEPNLKLRSRLKQKVAERRSSPLLRRKDGPVVTALKKRPLDVTDSACSSAPGSGPSSPNNSSGSVSAENGIAPAVPSIPAETSLAHRLVAREGSAAPLPLYTSPSLPNITLGLPATGPSAGTAGQQDAERLTLPALQQRLSLFPGTHLTPYLSTSPLERDGGAAHSPLLQHMVLLEQPPAQAPLVTGLGALPLHAQSLVGADRVSPSIHKLRQHRPLGRTQSAPLPQNAQALQHLVIQQQHQQFLEKHKQQFQQQQLQMNKIIPKPSEPARQPESHPEETEEELREHQALLDEPYLDRLPGQKEAHAQAGVQVKQEPIESDEEEAEPPREVEPGQRQPSEQELLFRQQALLLEQQRIHQLRNYQASMEAAGIPVSFGGHRPLSRAQSSPASATFPVSVQEPPTKPRFTTGLVYDTLMLKHQCTCGSSSSHPEHAGRIQSIWSRLQETGLRGKCECIRGRKATLEELQTVHSEAHTLLYGTNPLNRQKLDSKKLLGSLASVFVRLPCGGVGVDSDTIWNEVHSAGAARLAVGCVVELVFKVATGELKNGFAVVRPPGHHAEESTPMGFCYFNSVAVAAKLLQQRLSVSKILIVDWDVHHGNGTQQAFYSDPSVLYMSLHRYDDGNFFPGSGAPDEVGTGPGVGFNVNMAFTGGLDPPMGDAEYLAAFRTVVMPIASEFAPDVVLVSSGFDAVEGHPTPLGGYNLSARCFGYLTKQLMGLAGGRIVLALEGGHDLTAICDASEACVSALLGNELDPLPEKVLQQRPNANAVRSMEKVMEIHSKYWRCLQRTTSTAGRSLIEAQTCENEEAETVTAMASLSVGVKPAEKRPDEEPMEEEPPL
The term Kd denotes the equilibrium constant for the complex coming apart. On to B1, for which the Kd in test [1] was 1 nM.

B2: recombinant GST-tagged HDAC4 (amino acid 627-1085) (domain or fragment, human, UniProt P56524 627-1084, looked up)
chain: LSRAQSSPASATFPVSVQEPPTKPRFTTGLVYDTLMLKHQCTCGSSSSHPEHAGRIQSIWSRLQETGLRGKCECIRGRKATLEELQTVHSEAHTLLYGTNPLNRQKLDSKKLLGSLASVFVRLPCGGVGVDSDTIWNEVHSAGAARLAVGCVVELVFKVATGELKNGFAVVRPPGHHAEESTPMGFCYFNSVAVAAKLLQQRLSVSKILIVDWDVHHGNGTQQAFYSDPSVLYMSLHRYDDGNFFPGSGAPDEVGTGPGVGFNVNMAFTGGLDPPMGDAEYLAAFRTVVMPIASEFAPDVVLVSSGFDAVEGHPTPLGGYNLSARCFGYLTKQLMGLAGGRIVLALEGGHDLTAICDASEACVSALLGNELDPLPEKVLQQRPNANAVRSMEKVMEIHSKYWRCLQRTTSTAGRSLIEAQTCENEEAETVTAMASLSVGVKPAEKRPDEEPMEEEPPL
B2: the binding result in test [2] is listed as “binds”.
